Experimental data taken from publication PMC8878202, “Interdisciplinary Study of the Effects of Dipeptidyl-Peptidase III Cancer Mutations on the KEAP1-NRF2 Signaling Pathway” (International Journal of Molecular Sciences, 2022).
Where a chain is given by its changes, count along the chain named. In names and notes the source's numbering stands.

B1: Dipeptidyl peptidase III, wild type (enzyme, human, UniProt Q9NY33 1-737, looked up)
chain: MADTQYILPNDIGVSSLDCREAFRLLSPTERLYAYHLSRAAWYGGLAVLLQTSPEAPYIYALLSRLFRAQDPDQLRQHALAEGLTEEEYQAFLVYAAGVYSNMGNYKSFGDTKFVPNLPKEKLERVILGSEAAQQHPEEVRGLWQTCGELMFSLEPRLRHLGLGKEGITTYFSGNCTMEDAKLAQDFLDSQNLSAYNTRLFKEVDGEGKPYYEVRLASVLGSEPSLDSEVTSKLKSYEFRGSPFQVTRGDYAPILQKVVEQLEKAKAYAANSHQGQMLAQYIESFTQGSIEAHKRGSRFWIQDKGPIVESYIGFIESYRDPFGSRGEFEGFVAVVNKAMSAKFERLVASAEQLLKELPWPPTFEKDKFLTPDFTSLDVLTFAGSGIPAGINIPNYDDLRQTEGFKNVSLGNVLAVAYATQREKLTFLEEDDKDLYILWKGPSFDVQVGLHELLGHGSGKLFVQDEKGAFNFDQETVINPETGEQIQSWYRSGETWDSKFSTIASSYEECRAESVGLYLCLHPQVLEIFGFEGADAEDVIYVNWLNMVRAGLLALEFYTPEAFNWRQAHMQARFVILRVLLEAGEGLVTITPTTGSDGRPDARVRLDRSKIRSVGKPALERFLRRLQVLKSTGDVAGGRALYEGYATVTDAPPECFLTLRDTVLLRKESRKLIVQPNTRLEGSDVQLLEYEASAAGLIRSFSERFPEDGPELEEILTQLATADARFWKGPSEAPSGQA
notes: Dipeptidyl peptidase III (DPP III, EC 3.4.14.4), human, wild type, cloned into pLATE31; also called DPP III; WT DPP III; source: E. coli BL21-(DE3)-RIL+, purified (Ni-NTA agarose)
B2: DPP III E451K variant (enzyme, human, UniProt Q9NY33 1-737, looked up)
chain: B1 chain with E451K
notes: source: E. coli BL21-(DE3)-RIL+, purified (Ni-NTA agarose)
B3: DPP III E480Q variant (enzyme, human, UniProt Q9NY33 1-737, looked up)
chain: B1 chain with E480Q
notes: as for B2
B4: DPP III G482C variant (enzyme, human, UniProt Q9NY33 1-737, looked up)
chain: B1 chain with G482C
notes: as for B2
B5: DPP III P479S variant (enzyme, human, UniProt Q9NY33 1-737, looked up)
chain: B1 chain with P479S
notes: as for B2
B6: DPP III Q484H variant (enzyme, human, UniProt Q9NY33 1-737, looked up)
chain: B1 chain with Q484H
notes: as for B2
B7: DPP III R510W variant (enzyme, human, UniProt Q9NY33 1-737, looked up)
chain: B1 chain with R510W
notes: as for B2
B8: DPP III R638L variant (enzyme, human, UniProt Q9NY33 1-737, looked up)
chain: B1 chain with R638L
notes: as for B2
B9: DPP III R638W variant (enzyme, human, UniProt Q9NY33 1-737, looked up)
chain: B1 chain with R638W
notes: as for B2
B10: DPP III R703C variant (enzyme, human, UniProt Q9NY33 1-737, looked up)
chain: B1 chain with R703C
notes: as for B2
B11: DPP III T481M variant (enzyme, human, UniProt Q9NY33 1-737, looked up)
chain: B1 chain with T481M
notes: as for B2

target: T1, Kelch domain of KEAP1 protein (UniProt Q14145 321-609, fluorescently labeled with RED-MALEIMIDE (Cysteine reactive) fluorescent dye); test: MST; Kelch domain labeled with RED-MALEIMIDE, 50 nM; DPP III or variant added; binding-induced fluorescence change on Monolith NT.115; 25 °C; 50 mM Tris, 100 mM NaCl, pH 8.2, 0.05% Tween; triplicate; details: both partners purified
T1 construct: Kelch domain of KEAP1 (Kelch-like ECH associated protein 1); plasmid pET15b with Kelch insert, gift of Mark Hannink; also called Kelch-like ECH associated protein 1 (Kelch domain); source: E. coli BL21-(DE3)-RIL+, purified (Ni-NTA agarose)
T1 sequence (Q14145 321-609): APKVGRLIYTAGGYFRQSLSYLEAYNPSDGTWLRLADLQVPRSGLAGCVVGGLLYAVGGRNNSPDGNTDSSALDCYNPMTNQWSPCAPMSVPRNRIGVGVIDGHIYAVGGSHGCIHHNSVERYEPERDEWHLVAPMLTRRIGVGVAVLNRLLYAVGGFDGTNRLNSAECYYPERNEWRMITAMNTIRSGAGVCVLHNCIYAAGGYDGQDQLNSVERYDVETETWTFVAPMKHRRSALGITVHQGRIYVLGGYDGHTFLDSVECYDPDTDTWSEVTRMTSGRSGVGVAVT

Going from B1 to B2, the “Kd(WT)/Kd(mut)” value rises from 1 to 2.1.

Compared with B3, B4 is higher in “Kd(WT)/Kd(mut)” value: 0.1 for the first, 0.8 for the second.

Going from B5 to B6, the “Kd(WT)/Kd(mut)” value falls from 18.4 to 2.1.

Going from B7 to B8, the “Kd(WT)/Kd(mut)” value rises from 0.3 to 2.

First: B9
Second: B10
The “Kd(WT)/Kd(mut)” value of the first is higher: 2 for the first, 1.7 for the second.

B11 was tested, and the “Kd(WT)/Kd(mut)” value was 0.1.
